Measured values taken from patent publication US20190086422A1.

Experiments:
[1] = molecular target: Tau protein from human CSF (human) (UniProt P10636); assay: IP from human CSF, trypsin digest, MS; Tau peptide 195-209 (SEQ ID NO 77) quantified
[2] = molecular target: Tau protein from human CSF (human) (UniProt P10636); assay: IP from human CSF, trypsin digest, MS; Tau peptide 151-155 (SEQ ID NO 74) quantified
[3] = molecular target: Tau protein from human CSF (human) (UniProt P10636); assay: IP from human CSF, trypsin digest, MS; Tau peptide 386-395 (SEQ ID NO 85) quantified
[4] = molecular target: Tau protein from human CSF (human) (UniProt P10636); assay: IP from human CSF, trypsin digest, MS; Tau peptide 354-369 (SEQ ID NO 84) quantified
[5] = molecular target: Tau protein from human CSF (human) (UniProt P10636); assay: IP from human CSF, trypsin digest, MS; Tau peptide 88-126 (SEQ ID NO 73) quantified
[6] = molecular target: Tau protein from human CSF (human) (UniProt P10636); assay: IP from human CSF, trypsin digest, MS; Tau peptide 396-406 (SEQ ID NO 86) quantified
[7] = molecular target: Tau protein from human CSF (human) (UniProt P10636); assay: IP from human CSF, trypsin digest, MS; Tau peptide 175-180 (SEQ ID NO 75) quantified
[8] = molecular target: Tau protein from human CSF (human) (UniProt P10636); assay: IP from human CSF, trypsin digest, MS; Tau peptide 68-87 (SEQ ID NO 72) quantified
[9] = molecular target: Tau protein from human CSF (human) (UniProt P10636); assay: IP from human CSF, trypsin digest, MS; Tau peptide 6-23 (SEQ ID NO 69) quantified
[10] = molecular target: Tau protein from human CSF (human) (UniProt P10636); assay: IP from human CSF, trypsin digest, MS; Tau peptide 212-221 (SEQ ID NO 78) quantified
[11] = molecular target: Tau protein from human CSF (human) (UniProt P10636); assay: IP from human CSF, trypsin digest, MS; Tau peptide 24-44 (SEQ ID NO 70) quantified
[12] = molecular target: Tau protein from human CSF (human) (UniProt P10636); assay: IP from human CSF, trypsin digest, MS; Tau peptide 45-67 (SEQ ID NO 71) quantified
[13] = molecular target: Tau protein from human CSF (human) (UniProt P10636); assay: IP from human CSF, trypsin digest, MS; Tau peptide 212-224 (SEQ ID NO 79) quantified
[14] = molecular target: Tau protein from human CSF (human) (UniProt P10636); assay: IP from human CSF, trypsin digest, MS; Tau peptide 260-267 (SEQ ID NO 80) quantified
[15] = molecular target: Tau protein from human CSF (human) (UniProt P10636); assay: IP from human CSF, trypsin digest, MS; Tau peptide 275-280 (SEQ ID NO 81) quantified
[16] = molecular target: Tau protein from human CSF (human) (UniProt P10636); assay: IP from human CSF, trypsin digest, MS; Tau peptide 282-290 (SEQ ID NO 82) quantified
[17] = molecular target: Tau protein from human CSF (human) (UniProt P10636); assay: IP from human CSF, trypsin digest, MS; Tau peptide 299-316 as printed (SEQ ID NO 83) quantified
[18] = molecular target: Tau protein from human CSF (human) (UniProt P10636); assay: IP from human CSF, trypsin digest, MS; Tau peptide 181-190 (SEQ ID NO 76) quantified

Sequence of UniProt P10636 (P10636 other isoform, or with tags, fused parts or gaps limits assumed): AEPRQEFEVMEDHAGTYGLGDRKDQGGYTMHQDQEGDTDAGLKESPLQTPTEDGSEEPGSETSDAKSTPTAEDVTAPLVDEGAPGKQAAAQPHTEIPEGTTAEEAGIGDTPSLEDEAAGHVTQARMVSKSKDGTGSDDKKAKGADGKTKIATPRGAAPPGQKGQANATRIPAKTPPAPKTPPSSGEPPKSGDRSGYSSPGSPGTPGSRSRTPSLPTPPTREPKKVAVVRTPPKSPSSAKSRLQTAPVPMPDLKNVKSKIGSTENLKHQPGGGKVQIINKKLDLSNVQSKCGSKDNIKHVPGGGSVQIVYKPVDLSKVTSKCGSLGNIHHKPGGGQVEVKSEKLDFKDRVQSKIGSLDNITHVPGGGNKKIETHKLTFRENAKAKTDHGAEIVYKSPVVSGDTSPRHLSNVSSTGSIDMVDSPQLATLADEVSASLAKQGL

Substance	Peptide Intensity (fraction of the highest abundance among the three IP antibodies) [1]	Peptide Intensity (fraction of the highest abundance among the three IP antibodies) [2]	Peptide Intensity (fraction of the highest abundance among the three IP antibodies) [3]	Peptide Intensity (fraction of the highest abundance among the three IP antibodies) [4]	Peptide Intensity (fraction of the highest abundance among the three IP antibodies) [5]	Peptide Intensity (fraction of the highest abundance among the three IP antibodies) [6]	Peptide Intensity (fraction of the highest abundance among the three IP antibodies) [7]	Peptide Intensity (fraction of the highest abundance among the three IP antibodies) [8]	Peptide Intensity (fraction of the highest abundance among the three IP antibodies) [9]	Peptide Intensity (fraction of the highest abundance among the three IP antibodies) [10]	Peptide Intensity (fraction of the highest abundance among the three IP antibodies) [11]	Peptide Intensity (fraction of the highest abundance among the three IP antibodies) [12]	Peptide Intensity (fraction of the highest abundance among the three IP antibodies) [13]	Peptide Intensity (fraction of the highest abundance among the three IP antibodies) [14]	Peptide Intensity (fraction of the highest abundance among the three IP antibodies) [15]	Peptide Intensity (fraction of the highest abundance among the three IP antibodies) [16]	Peptide Intensity (fraction of the highest abundance among the three IP antibodies) [17]	Peptide Intensity (fraction of the highest abundance among the three IP antibodies) [18]
Tau12 (antibody)	1	0.87	0.68	0.86	0.59	0.42	0.99	0.47	1	1	0.15	0.92	1	0.86	0.31	1	0.82	0.46
HJ8.7 (antibody)	0.8	1	1	1	1	0.39	1	1	0.68	0.86	0.84	1	0.94	1	1	0.04	1	1
